Laboratory results taken from US20020123614A1 (published 2002).
Numbering of substitutions follows the chain as printed. Numbers in names are those of the source. One block for each binder: values may come before it.

Legend:
[1] = biological target: T1, recombinant ICAM-3 Fc chimera (UniProt P32942 30-485, limits assumed); assay: BIAcore, 1 mM MgCl2
T1 construct: amine-coupled to the BIAcore chip; not shown: Fc part, not described
T1 sequence (looked up): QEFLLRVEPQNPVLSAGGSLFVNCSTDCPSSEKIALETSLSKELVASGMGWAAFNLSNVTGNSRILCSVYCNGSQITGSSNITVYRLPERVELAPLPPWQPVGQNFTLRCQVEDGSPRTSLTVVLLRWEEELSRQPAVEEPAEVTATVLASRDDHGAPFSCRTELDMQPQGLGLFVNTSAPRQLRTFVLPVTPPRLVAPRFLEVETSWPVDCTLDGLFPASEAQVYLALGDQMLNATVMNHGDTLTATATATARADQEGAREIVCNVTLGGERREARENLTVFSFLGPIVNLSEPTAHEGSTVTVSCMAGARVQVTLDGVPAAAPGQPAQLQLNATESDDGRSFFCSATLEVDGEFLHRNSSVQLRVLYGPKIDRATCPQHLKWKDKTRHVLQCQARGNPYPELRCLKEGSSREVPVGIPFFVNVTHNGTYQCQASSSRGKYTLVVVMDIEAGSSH
Procedure: (§1) The recombinant proteins were purified from inclusion bodies by solubilization of inclusion bodies in 6M guanidine HCl and were refolded by dilution in the presence of 0.1 mM Cu²⁺/phenanthrolin to enhance formation of disulfide bonds. Protein was concentrated by ammonium sulfate precipitation, dialyzed, and purified over a monoQ ion-exchange column. […] The recombinant proteins were then purified by gel filtration and concentrated by Centriprep. For BIAcore™ analysis, recombinant ICAM-1, ICAM-2 and ICAM-3 Fc chimeras were immobilized on the BIAcore™ sensor chip by an amine-coupling method. Recombinant αL I-domains were flowed in, and BIAcore™ assays were performed with Tris-buffered saline supplemented with 1 mM MgCl₂ or 2 mM EDTA, at a flow rate of 10 μl/minute at 25° C.

[2] = biological target: T2, recombinant ICAM-2 Fc chimera (UniProt P13598 25-223, limits assumed); assay: BIAcore, 1 mM MgCl2
T2 construct: amine-coupled to the BIAcore chip; not shown: Fc part, not described
T2 sequence (looked up): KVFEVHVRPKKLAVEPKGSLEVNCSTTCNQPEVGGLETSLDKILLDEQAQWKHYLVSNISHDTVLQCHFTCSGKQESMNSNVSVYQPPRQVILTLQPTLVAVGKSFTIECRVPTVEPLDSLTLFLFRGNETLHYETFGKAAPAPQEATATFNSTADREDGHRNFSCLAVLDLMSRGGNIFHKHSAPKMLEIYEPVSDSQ
Procedure: as §1

[3] = biological target: T3, recombinant ICAM-1 Fc chimera (UniProt P05362 28-480, limits assumed); assay: BIAcore; Scatchard plots at steady state
T3 construct: amine-coupled to the BIAcore chip; not shown: Fc part, not described
T3 sequence (P05362 28-480 limits assumed, change not shown): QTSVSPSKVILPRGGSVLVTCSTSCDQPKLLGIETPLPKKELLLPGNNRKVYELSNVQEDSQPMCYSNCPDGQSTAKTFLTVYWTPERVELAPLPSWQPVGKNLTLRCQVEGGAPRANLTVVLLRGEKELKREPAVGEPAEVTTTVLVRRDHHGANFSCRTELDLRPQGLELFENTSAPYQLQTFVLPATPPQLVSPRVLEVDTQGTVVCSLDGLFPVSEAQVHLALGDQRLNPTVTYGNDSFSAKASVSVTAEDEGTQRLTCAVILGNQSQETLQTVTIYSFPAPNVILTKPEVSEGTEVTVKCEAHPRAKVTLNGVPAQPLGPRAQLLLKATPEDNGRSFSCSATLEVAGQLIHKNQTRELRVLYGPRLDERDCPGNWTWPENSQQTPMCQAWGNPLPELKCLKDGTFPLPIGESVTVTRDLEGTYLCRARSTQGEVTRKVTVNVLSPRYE
Procedure: (§2) Recombinant soluble αL I-domains were expressed in E. coli, refolded and purified. Kinetics of binding of the I-domains to ICAM-1 was measured by BIAcore ™ instruments. Kinetics was analyzed BIAevaluation ™ software. KD was calculated by Scatchard plots using data at steady states. Koff was obtained by curve fining of the dissociation phase using 1:1 binding model. Kon was calculated by Koff/KD.

[4] = biological target: T3, recombinant ICAM-1 Fc chimera; assay: BIAcore; Kon calculated by Koff/KD
Procedure: as §2

[5] = biological target: T3, recombinant ICAM-1 Fc chimera; assay: BIAcore; dissociation phase, 1:1 model
Procedure: as §2

[6] = biological target: T4, murine ICAM-1 (murine, UniProt P13597 28-485, limits assumed); assay: BIAcore (not described further)
T4 construct: on EL-4 cells in the aggregation assay
T4 sequence (P13597 28-485 limits assumed): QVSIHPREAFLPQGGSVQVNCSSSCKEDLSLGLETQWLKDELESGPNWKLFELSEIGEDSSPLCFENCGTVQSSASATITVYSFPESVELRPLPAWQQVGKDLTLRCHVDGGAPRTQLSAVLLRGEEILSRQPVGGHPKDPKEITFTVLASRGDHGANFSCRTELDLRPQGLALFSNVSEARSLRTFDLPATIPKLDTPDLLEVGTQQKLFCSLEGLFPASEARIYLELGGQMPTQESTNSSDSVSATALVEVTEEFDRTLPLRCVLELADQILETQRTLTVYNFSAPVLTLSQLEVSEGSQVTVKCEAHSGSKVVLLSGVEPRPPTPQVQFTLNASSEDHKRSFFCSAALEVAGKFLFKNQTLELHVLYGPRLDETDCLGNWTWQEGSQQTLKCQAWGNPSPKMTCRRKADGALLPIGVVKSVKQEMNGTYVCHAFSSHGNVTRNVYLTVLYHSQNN

[7] = biological target: T1, recombinant ICAM-3 Fc chimera; assay: BIAcore, ICAM Fc chimera immobilized, 1:1 model
Procedure: as §1

[8] = biological target: T3, recombinant ICAM-1 Fc chimera; assay: BIAcore, ICAM Fc chimera immobilized, 1:1 model
Procedure: as §1

[9] = biological target: T2, recombinant ICAM-2 Fc chimera; assay: BIAcore, ICAM Fc chimera immobilized, 1:1 model
Procedure: as §1

[10] = biological target: ICAM-1 (BIAcore, another study; construct not stated) (UniProt P05362 28-480, limits assumed); assay: BIAcore, another study
Chain of ICAM-1 (BIAcore, another study; construct not stated) (P05362 28-480 limits assumed): as the sequence (P05362 28-480 limits assumed, change not shown) above

- binding result [1]: no binding
- binding result [2]: no binding
B1: recombinant soluble wild-type αL I-domain (G128-Y307), E. coli (receptor)
chain: GNVDLVFLFDGSMSLQPDEFQKILDFMKDVMKKLSNTSYQFAAVQFSTSYKTEFDFSDYVKRKDPDALLKHVKHMLLLTNTFGAINYVATEVFREELGARPDATKVLIIITDGEATDSGNIDAAKDIIRYIIGIGKHFQTKESQETLHKFASKPASEFVKILDTFEKLKDLFTELQKKIY
notes: numbers as printed, probably mature αL numbering; also called soluble wild-type I domain; wild-type I-domain

- Kd [3]: 4.8 µM
- kon [4]: 135000 M⁻¹ s⁻¹
- koff [5]: 0.65 s⁻¹
B2: recombinant soluble αL I-domain L161C/T300C (locked open, intermediate affinity) (receptor)
chain: B1 chain with L34C, T173C

- Kd [3]: 0.36 µM
- kon [4]: 128000 M⁻¹ s⁻¹
- koff [5]: 0.0459 s⁻¹
B3: recombinant soluble αL I-domain E284C/E301C (locked open) (receptor)
chain: B1 chain with E157C, E174C

- Kd [3]: 4.39 µM
- kon [4]: 153000 M⁻¹ s⁻¹
- koff [5]: 0.67 s⁻¹
B4: recombinant soluble αL I-domain K160C/F299C (locked open, intermediate affinity) (receptor)
chain: B1 chain with K33C, F172C

- Kd [3]: 0.18 µM
- binding result [6]: binds
- Kd [7]: 3.94 µM
- koff [7]: 0.0749 s⁻¹
- kon [7]: 19000 M⁻¹ s⁻¹
- Kd [8]: 0.18 µM
- koff [8]: 0.023 s⁻¹
- kon [8]: 128000 M⁻¹ s⁻¹
- Kd [9]: 0.513 µM
- koff [9]: 0.0118 s⁻¹
- kon [9]: 23000 M⁻¹ s⁻¹
- kon [4]: 128000 M⁻¹ s⁻¹
- koff [5]: 0.023 s⁻¹
- Kd [10]: 0.2 µM
B5: recombinant soluble αL I-domain stabilized in the open conformation (K287C/K294C), G128-Y307, E. coli (receptor)
chain: B1 chain with K160C, K167C
modifications: introduced disulfide C287-C294
notes: numbers as printed, probably mature αL numbering; also called open I-domain; soluble open I-domain

- Kd [3]: 1760 µM
- kon [4]: 2110 M⁻¹ s⁻¹
- koff [5]: 2.84 s⁻¹
B6: recombinant soluble αL I-domain L289C/K294C (locked closed) (receptor)
chain: B1 chain with L162C, K167C

- Kd [3]: 3.76 µM
- kon [4]: 136000 M⁻¹ s⁻¹
- koff [5]: 0.513 s⁻¹
B7: recombinant soluble αL I-domain L161C/F299C (locked open, intermediate affinity) (receptor)
chain: B1 chain with L34C, F172C
